Measured values from PMC2113082 (The Journal of Cell Biology, 1984).

Target: von Willebrand factor (human, UniProt P04275 764-2813)
Test: ELISA

Sequence of von Willebrand factor (P04275 764-2813): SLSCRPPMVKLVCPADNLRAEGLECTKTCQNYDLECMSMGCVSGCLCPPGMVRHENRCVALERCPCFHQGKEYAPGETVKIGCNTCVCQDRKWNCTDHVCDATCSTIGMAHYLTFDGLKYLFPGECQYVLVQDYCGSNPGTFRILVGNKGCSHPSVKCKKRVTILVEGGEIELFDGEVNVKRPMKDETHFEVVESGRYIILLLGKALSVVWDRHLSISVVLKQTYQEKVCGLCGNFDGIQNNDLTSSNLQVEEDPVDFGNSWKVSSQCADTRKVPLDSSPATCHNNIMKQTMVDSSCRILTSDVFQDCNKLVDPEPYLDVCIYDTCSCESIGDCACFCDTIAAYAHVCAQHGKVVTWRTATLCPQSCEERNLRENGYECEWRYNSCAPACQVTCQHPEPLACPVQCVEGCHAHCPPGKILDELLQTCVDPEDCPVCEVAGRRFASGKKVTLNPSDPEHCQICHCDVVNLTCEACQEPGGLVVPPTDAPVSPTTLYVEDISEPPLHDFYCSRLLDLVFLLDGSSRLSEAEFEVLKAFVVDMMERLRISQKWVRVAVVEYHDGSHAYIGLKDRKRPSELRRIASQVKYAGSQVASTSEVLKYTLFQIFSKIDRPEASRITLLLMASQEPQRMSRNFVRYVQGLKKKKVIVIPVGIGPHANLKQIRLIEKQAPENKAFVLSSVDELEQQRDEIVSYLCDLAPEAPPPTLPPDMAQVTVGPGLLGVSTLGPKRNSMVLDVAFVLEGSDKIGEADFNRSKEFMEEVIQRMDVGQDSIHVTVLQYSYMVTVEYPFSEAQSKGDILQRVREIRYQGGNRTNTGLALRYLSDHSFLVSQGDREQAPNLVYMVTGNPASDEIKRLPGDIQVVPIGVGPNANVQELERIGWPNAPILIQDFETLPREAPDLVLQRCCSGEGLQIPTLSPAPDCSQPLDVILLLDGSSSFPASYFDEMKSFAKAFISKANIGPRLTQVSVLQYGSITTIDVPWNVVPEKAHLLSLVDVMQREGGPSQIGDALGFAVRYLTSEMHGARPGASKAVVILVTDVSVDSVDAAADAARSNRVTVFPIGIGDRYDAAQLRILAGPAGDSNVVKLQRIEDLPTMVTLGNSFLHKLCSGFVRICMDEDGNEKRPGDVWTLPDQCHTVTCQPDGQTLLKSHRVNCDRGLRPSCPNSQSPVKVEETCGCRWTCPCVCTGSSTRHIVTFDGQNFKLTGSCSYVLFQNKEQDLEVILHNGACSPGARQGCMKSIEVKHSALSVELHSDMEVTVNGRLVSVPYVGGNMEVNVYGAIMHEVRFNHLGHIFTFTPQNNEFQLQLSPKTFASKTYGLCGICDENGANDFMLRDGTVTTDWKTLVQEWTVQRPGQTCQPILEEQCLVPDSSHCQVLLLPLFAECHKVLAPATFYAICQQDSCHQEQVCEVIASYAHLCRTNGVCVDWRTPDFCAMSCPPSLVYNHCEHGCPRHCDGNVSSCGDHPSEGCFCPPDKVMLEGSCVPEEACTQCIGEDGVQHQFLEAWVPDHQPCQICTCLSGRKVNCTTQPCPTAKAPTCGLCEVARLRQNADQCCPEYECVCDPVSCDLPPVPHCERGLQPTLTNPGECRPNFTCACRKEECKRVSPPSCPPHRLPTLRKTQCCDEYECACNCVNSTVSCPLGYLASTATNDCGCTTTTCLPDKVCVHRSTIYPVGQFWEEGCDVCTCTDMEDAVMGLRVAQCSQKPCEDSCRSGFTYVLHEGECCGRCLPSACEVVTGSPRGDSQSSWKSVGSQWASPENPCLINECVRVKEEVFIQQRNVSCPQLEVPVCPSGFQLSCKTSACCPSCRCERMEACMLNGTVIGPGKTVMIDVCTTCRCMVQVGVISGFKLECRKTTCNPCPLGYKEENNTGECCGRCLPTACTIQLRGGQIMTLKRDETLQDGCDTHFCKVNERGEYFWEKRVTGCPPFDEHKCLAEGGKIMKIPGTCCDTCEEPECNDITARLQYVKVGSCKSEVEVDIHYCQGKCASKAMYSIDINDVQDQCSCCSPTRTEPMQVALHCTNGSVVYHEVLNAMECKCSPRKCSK

- binding result: binds
B1: Phosphorylase b (enzyme, rabbit, UniProt P00489 1-843, looked up)
chain: MSRPLSDQEKRKQISVRGLAGVENVTELKKNFNRHLHFTLVKDRNVATPRDYYFALAHTVRDHLVGRWIRTQQHYYEKDPKRIYYLSLEFYMGRTLQNTMVNLALENACDEATYQLGLDMEELEEIEEDAGLGNGGLGRLAACFLDSMATLGLAAYGYGIRYEFGIFNQKICGGWQMEEADDWLRYGNPWEKARPEFTLPVHFYGRVEHTSQGAKWVDTQVVLAMPYDTPVPGYRNNVVNTMRLWSAKAPNDFNLKDFNVGGYIQAVLDRNLAENISRVLYPNDNFFEGKELRLKQEYFVVAATLQDIIRRFKSSKFGCRDPVRTNFDAFPDKVAIQLNDTHPSLAIPELMRVLVDLERLDWDKAWEVTVKTCAYTNHTVLPEALERWPVHLLETLLPRHLQIIYEINQRFLNRVAAAFPGDVDRLRRMSLVEEGAVKRINMAHLCIAGSHAVNGVARIHSEILKKTIFKDFYELEPHKFQNKTNGITPRRWLVLCNPGLAEIIAERIGEEYISDLDQLRKLLSYVDDEAFIRDVAKVKQENKLKFAAYLEREYKVHINPNSLFDVQVKRIHEYKRQLLNCLHVITLYNRIKKEPNKFVVPRTVMIGGKAAPGYHMAKMIIKLITAIGDVVNHDPVVGDRLRVIFLENYRVSLAEKVIPAADLSEQISTAGTEASGTGNMKFMLNGALTIGTMDGANVEMAEEAGEENFFIFGMRVEDVDRLDQRGYNAQEYYDRIPELRQIIEQLSSGFFSPKQPDLFKDIVNMLMHHDRFKVFADYEEYVKCQERVSALYKNPREWTRMVIRNIATSGKFSSDRTIAQYAREIWGVEPSRQRLPAPDEKIP
